Measurements published in patent US20190015484A1, “NICOTINE-DEGRADING ENZYMES FOR TREATING NICOTINE ADDICTION AND NICOTINE POISONING” (priority 2015, published 2019).
Values joined by “and” are separate entries in the source; they are usually repeats but may differ in a detail not shown here. Equal entries are not always repeated.

Key:
[1] = NicA2 Michaelis-Menten assay (LC-MS); format: biochemical
Experimental: NicA2 activity was determined by LC-MS using Agilent 1260 Infinity liquid chromatography system with 6130 quadrupole mass spectrometry. 20 μl of each sample was injected to a Poroshell 120 EC-C8 column (4.6×50 mm, 2.7 μm, Agilent Technologies) subjected to a gradient (A to B where A=0.1% formic acid in water and B=0.1% formic acid in acetonitrile) of 0% B for 3 min, 0% B to 100% B from 3 to 7 min, and 100% B from 7 to 10 min at a constant flow rate of 0.5 ml/min. A column-solvent equilibration time of 3 min was conducted prior to next sample analysis. MS operational parameters were: API-ES mode, channel 1 (90%) positive single ion monitoring (SIM) of m/z 179 (30%), 161 (30%), 166 (30%) and 163 (10%), corresponding to the M+ peak of the reaction products, labeled internal standard and substrate respectively and channel 2 (10%) scan for positive ions; nitrogen as a nebulizing and drying gas (35 psi, 12 L/min), HV capillary voltage at 4 kV and the drying gas temperature to 300° C. To protect the detector from salts in the buffer, MS was turned on with a delay 1.4 min after injection.
Nicotine was solubilized in ddH2O to a concentration of 10 mM as stock and diluted with HEPES buffer (50 mM, pH=7.4) in the assay. Then 100 μL nicotine solution was mixed with 100 μL NicA2 solution to obtain final concentrations of 0.0625, 0.125, 0.25, 0.5, 1, 2 […] and 10 nM NicA2. After incubating at room temperature for 20 min, 20 μL nicotine methyl D-3 (2 μM in 20% TFA/H2O) solution was added to the mixture as an internal standard and to quench the reaction as well. The samples were injected into the LC-MS for analysis.
For standard curve generation, 0.03125, 0.0625, 0.125, 0.25, 0.5, 1, 2 μM nicotine and 0.4 μM NicA2 was tested and incubated for 2 h for complete oxidation of nicotine.
For the assay at 37° C., all the operations were undertaken in a warm room (37° C.) and solutions were pre-warmed to 37° C. Subsequently protocols were followed as described, vide supra.
Raw data was obtained with Agilent ChemStation, ions with m/z 179,161 (products), 166 (internal standard), 163 (nicotine) were extracted from MS channel 1 (SIM). The area of each peak was integrated and divided by internal standard (IS).
Data was further analyzed with Prism 6.0. For standard curves, the ratios of products to IS were plotted against concentrations of converted nicotine and fitted with linear regression. For experiment data, the ratios were fitted to the standard curves to obtain converted nicotine concentration, and then divided by reaction time (20 min) to get v0. These v0 were plotted against substrate nicotine concentrations using he Michaelis-Menten model to obtain Km and Vmax.
Upon reaction of nicotine with NicA2, three products were observed by LC-MS, one with m/z 179 (4) and two inseparable nicotine metabolites with m/z 161 (1 and 2, FIG. 2). Due to the limitation of instrument sensitivity and the dynamic equilibration of the products, direct quantification of the enzyme's efficiency was challenging. To compensate for these shortcomings, the product peaks 1, 2 and 4 were integrated in order to back-calculate the amount of nicotine consumed by NicA2. Standard curves were generated wherein nicotine was fully oxidized by NicA2 and the m/z 161/179 signals were plotted against a change in nicotine concentration, to provide a direct linear relationship (FIG. 3). The kinetic parameters of the enzyme were thus accurately determined.
To determine kinetic parameters of the enzyme, curves were generated at varying nicotine concentrations utilizing 10 nM NicA2 at room temperature. Samples were analyzed by LC-MS using nicotine (methyl-D3) as an internal standard. Target m/z values (161, 179 and 166) were extracted, integrated and fit to obtain the velocity, v0.

[2] = In vivo testing of NicA2: blood and brain nicotine levels in rats; set-up: species or system rat
Experimental: Rats were used for in vivo testing because their nicotine metabolism is generally similar to that of humans with regard to rate and range of metabolites. 30 female, 250 g Sprague Dawley rats were pretreated with varying amounts of NicA2 intravenously as noted in Table B below.
After administration of NicA2 (generally over 5 minutes), nicotine (0.03 mg/kg) was administered intravenously. At 5 minutes, the rats were sacrificed under isoflurane anesthesia and 1 ml blood samples were collected with 0.32 ml heparin. 0.5 ml of each blood sample was added to a tube containing ice cold 2 ml methanol (to quench NicA2 activity) and the contents were rapidly mixed. Another 0.5 ml of each blood sample was added to a tube containing ice cold 2 ml of methanol (to quench NicA2 activity) and deuterium labeled D4-nicotine, and the contents were rapidly mixed. The brains were collected and frozen at −20° C. Measurements were made in accordance with Keyler et al., International Pharmacology 2008, 8, […], and, Hieda et al., Psychopharmacology, 1999, 143(2), 150-157.

[3] = NicA2 PK study in mice (ELISA of serum); format: in vivo, mouse
Experimental: Purified His-tagged NicA2 was conjugated to 20 kDa PEG and subsequently purified by HPLC. […] The fusion protein was expressed in E. coli and purified as described above for NicA2.
His-tagged NicA2, NicA2-PEG or NicA2-ABD was dosed intravenously in mice at 5 mg/kg. Blood sampling was done at pre-dose and then over a 5 min-72 h period (three animals per time-point) and processed to serum.
Assay of serum samples was done taking advantage of the C-terminal His-tag on the test articles. MaxiSorp ELISA plates (Nunc) were coated overnight with anti-His×6 antibody (purchased from R&D Systems). Plates were blocked with 4% dry milk (purchased from Bio-Rad) in PBS. Dilutions of standard and serum samples in 2% milk in PBS+0.1% Tween-20 were added to the plates, and incubated for 1 hour at room temperature. After washing away unbound substances (all wash steps performed in PBS+0.1% Tween-20), rabbit anti-NicA2 polyclonal primary detection antibody (purchased from Noble Life Sciences, Inc.) was added to the wells for a 1 hour incubation. […] Plates were washed, and the remaining binding complex was detected with TMB substrate (3,3′,5,5′-tetramethylbenzidine; KPL). Once stopped with acid, plates were read on a spectrophotometer at 450 nm and data analyzed in SoftMax® Pro, version 6.5.1 (purchased from Molecular Devices). […]

B1: NicA2: flavin-containing nicotine-degrading enzyme of Pseudomonas putida S16, amino acid sequence SEQ ID NO:1 (protein)
chain: MSDKTKTNEGFSRRSFIGSAAVVTAGVAGLGAIDAASATQKTNRASTVKGGFDYDVVVVGGGFAGATAARECGLQGYRTLLLEARSRLGGRTFTSRFAGQEIEFGGAWVHWLQPHVWAEMQRYGLGVVEDPLTNLDKTLIMYNDGSVESISPDEFGKNIRIAFEKLCHDAWEVFPRPHEPMFTERARELDKSSVLDRIKTLGLSRLQQAQINSYMALYAGETTDKFGLPGVLKLFACGGWNYDAFMDTETHYRIQGGTIGLINAMLTDSGAEVRMSVPVTAVEQVNGGVKIKTDDDEIITAGVVVMTVPLNTYKHIGFTPALSKGKQRFIKEGQLSKGAKLYVHVKQNLGRVFAFADEQQPLNWVQTHDYSDELGTILSITIARKETIDVNDRDAVTREVQKMFPGVEVLGTAAYDWTADPFSLGAWAAYGVGQLSRLKDLQAAEGRILFAGAETSNGWHANIDGAVESGLRAGREVKQLLS
modifications: His tag
- specificity constant [1]: approximately 10^5 M^−1s^−1
- Km ([1]; 37° C.): 0.092 µM and 0.0919 µM
- kcat ([1]; 37° C.): (1.32±0.04)×10^−2 s^−1
- kcat ([1]; room temperature, m/z 161): (7.02 ± 0.23) × 10^−3 s^−1
- Km ([1]; room temperature, m/z 161, 10 nM NicA2): 0.0462 ± 0.0064 µM
- kcat ([1]; room temperature, m/z 179): (6.64 ± 0.17) × 10^−3 s^−1
- Km ([1]; room temperature, m/z 179, 10 nM NicA2): 0.043 µM and 0.0435 µM
- brain nicotine levels ([2]; 4 out of the 5 animals, 5 min after 0.03 mg/kg i.v. nicotine): < 2 ng/mL
- blood and brain levels of nicotine ([2]; rats, 5 minutes after 0.03 mg/kg i.v. nicotine, n=5): below the limit of quantitation
- reduction in nicotine blood levels ([2]; rats, highest NicA2 dose (9.72 mg/kg i.v.), 5 min after 0.03 mg/kg i.v. nicotine, compared to controls): > 95%
- half-life in vivo ([3]; in vivo in mammals, due to renal clearance): 3 to 4 h
- Half-life ([3]; mice, 5 mg/kg intravenously, serum): 3.7 h
